Data reported in the nanobody polyreactivity screen of Harvey et al. (2022).

Test: yeast display, Sf9 membrane polyspecificity reagent, FACS + sequencing; frameworks hold sequencing errors
In short: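 Galactose induction of a Saccharomyces cerevisiae BJ5465 synthetic nanobody display library ran 36–48 hours. The cells were then stained for 1 hour at 4 °C with 10% biotinylated, detergent-solubilized Sf9 membrane reagent, pulled down on streptavidin microbeads and FACS-sorted into low and high (top ~1%) gates on expression and reagent-binding fluorescence. Labels for polyreactivity follow the gate of origin.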
For “QVQLVESGGGLVQAGGSLRLSCAASGRIFTWKGMGWYRQAPGKERELVARISSGTRTNYADSVKGRFTISRDNAKNTVYLQMNCLKPEDTAVYYFAAAAKRSDAYHNRRYYWGQGTQVTVSS”, the “polyreactivity (PSR sort gate)” value was “high polyreactivity”. In the case of “QVQLVESGGGLVQAGGSLRLSCAASGRIFTWYGMGWYSQAPGKERELVARITQRGGTTYYADSVKGRFTISRDNAKNTVYLQINSLKPEDTAFYYCATQYTYTGRRYYSYVDGSRYYYWGQGTQVTVSS”, the “polyreactivity (PSR sort gate)” value is reported as “high polyreactivity”. With “QVQLVESGGGLVQAGGSLRLSCAASGRIFTWYTMGWYRQAPGKERELVAAINRGGSTTYADSVKGRFTISRDNAKNTVYLQMNSLKPEDTAVYSCAAYRYTSRVYSYWRGYDYWGQGTQVTVSS” the “polyreactivity (PSR sort gate)” value was “high polyreactivity”. With “QVQLVESGGGLVQAGGSLRLSCAASGRIFTYNAMGWYRQAPGKERELDATITWRGGGTYYADSVKGRFTISRDNAKNTVYLQMNSLKPEDTAVYYCNRRLPGDGQYGYRRYDYWGQGTQVTVSS” the “polyreactivity (PSR sort gate)” value was “low polyreactivity”. In the case of “QVQLVESGGGLVQAGGSLRLSCAASGRIFTYNAMGWYRQAPGKERELVAASSRRGGTTYYADSVKGRFTISRDIAKITVYLQMNSLKPEDTAVYYCAARGQYRYSFGDYSWGQGTQVTVSS”, the “polyreactivity (PSR sort gate)” value is reported as “high polyreactivity”. With “QVQLVESGGGLVQAGGSLRLSCAASGRIFTYNVMGWYRQAPGKERELVAAIYSSGVRTSYADSVKGRFTISRDNAKNTVYLHMNSLKPEDTALYYCAADKRYHYGLLHDPSYYYDYWGQGTQVTVSS” the “polyreactivity (PSR sort gate)” value was “low polyreactivity”. For “QVQLVESGGGLVQAGGSLRLSCAASGRIFVANAMGWYRKAPGTERELVAAISRRGGRTYYADSVKGRFTISRDNAKNTVYLQMNSLKPEDTAVYYCAAIRSVTRFPRRYDYWGQGTPVTVSS”, the “polyreactivity (PSR sort gate)” value was “high polyreactivity”. With “QVQLVESGGGLVQAGGSLRLSCAASGRIFVANAMGWYRQAPGKERELVAVISGSGGRTYYADSVKGRFTISRDNAKNTVYLQMNSLKPEDTAVYYCAAQKWQQGITAYEYWGQGTQVTVSS” the “polyreactivity (PSR sort gate)” value was “high polyreactivity”. With “QVQLVESGGGLVQAGGSLRLSCAASGRIFVAYAMGWYRQAPGKERELVAAITWSGTSTYADSVKGRFTISRDNAKNTVYLQMNSLKPEDTAVYYCAKKAIVSDQWDKYDYWGQGTQVTVSS” the “polyreactivity (PSR sort gate)” value was “low polyreactivity”. For “QVQLVESGGGLVQAGGSLRLSCAASGRIFVAYAMGWYRQAPGKQRELVADIDYIDGSTYYADSVKGRFTISRDNAKNTVYLQMNSLKPEDTAVYYCAVDSLYYAGYYDYWGQGTQVTVSS”, the “polyreactivity (PSR sort gate)” value was “high polyreactivity”. With “QVQLVESGGGLVQAGGSLRLSCAASGRIFVDNAMGWYRQAPGKERELVATITSTGSTNYADSVKGRFTISRDNAKYTVYLQMNSLKPEDTAVYYCNADGKLQDYDYWGQGTQVTVSS” the “polyreactivity (PSR sort gate)” value was “high polyreactivity”. In the case of “QVQLVESGGGLVQAGGSLRLSCAASGRIFVFNAMGWYRQAPGKERELVAAISRRGGSTYYADSVKGRFTISRDNAKNTVYLQMNSLKPEVTAVYYCAAVYPDYSSARYDYWGQGTQVTVSS”, the “polyreactivity (PSR sort gate)” value is reported as “high polyreactivity”. In the case of “QVQLVESGGGLVQAGGSLRLSCAASGRIFVFYAMGWYRQAPGKERELVAAISKSVGPTYYADSVKGRFTISRDTAKNTVYLQMNSLKPADTAGYYCNKRSASDLWPQYGYWGQGTQVTVSS”, the “polyreactivity (PSR sort gate)” value is reported as “low polyreactivity”. With “QVQLVESGGGLVQAGGSLRLSCAASGRIFVFYAMGWYRQAPGKVREFVATISYSGDTTYYADSVKGRFTISRDNAKNTVYLEMNSLKPEDTAVYYCAADQVPSYYYVPLGYDSWGQGTQVTVSS” the “polyreactivity (PSR sort gate)” value was “low polyreactivity”. For “QVQLVESGGGLVQAGGSLRLSCAASGRIFVGDAMGWYRQAPGTERELVAAISRDGDNTFYADSVKGRFTISRDNAKNTVYLQMNSLKPEDTAVYYCAVDYWVWYGSAYAYDYYWGQGTQVTVSS”, the “polyreactivity (PSR sort gate)” value was “low polyreactivity”. With “QVQLVESGGGLVQAGGSLRLSCAASGRIFVGNAMGWYRQAPGKERELVAAISRSGGRTYYADSVKGRFTISRDNAKNSVYLQMNSLKPEDTAVYYCAAVSLSGRYGDYDYWGQGTQVTVSS” the “polyreactivity (PSR sort gate)” value was “high polyreactivity”. With “QVQLVESGGGLVQAGGSLRLSCAASGRIFVGYAMGWYRQAPGKERELVAAISARGGSTYYADSVKGRFTISRDNAKNTVYLQMNSLKPEDTAVYYCAADEASSRGYYDYDYWGQGTQVTVSS” the “polyreactivity (PSR sort gate)” value was “low polyreactivity”. In the case of “QVQLVESGGGLVQAGGSLRLSCAASGRIFVGYAMGWYRQAPGKERELVAAISRSGARTYYADSVKGRFTISRAIAKNTVYLQMNSLKPVDTAVYYCNTVKVLIYSWGQGTQVTVSS”, the “polyreactivity (PSR sort gate)” value is reported as “high polyreactivity”. In the case of “QVQLVESGGGLVQAGGSLRLSCAASGRIFVGYAMGWYRQAPGKERELVAAITGSGGGTYYADSVKGRFTISRDNAKNTVYLQMNSLKPEDTAVYYCNARYRSYYVTQRLDYWGQGTQVTVSS”, the “polyreactivity (PSR sort gate)” value is reported as “high polyreactivity”. In the case of “QVQLVESGGGLVQAGGSLRLSCAASGRIFVGYTMGWYRQAPGKERELVAAITSGGSTYYADSVKGRFTISRDNAKNTVYLQMNSLNPEDTADYYCNAAYQFDSYHLGGNRYEYWGQGTQETVSS”, the “polyreactivity (PSR sort gate)” value is reported as “low polyreactivity”. In the case of “QVQLVESGGGLVQAGGSLRLSCAASGRIFVINAMGLYRQAPGKERELVADITWSGGSTYADSVKGRFTISRDTAKNTVYLQLNSLKPEDTAVYYCAAVYLRVDRYLQVYRYDYWGQGTQVTVSS”, the “polyreactivity (PSR sort gate)” value is reported as “high polyreactivity”. With “QVQLVESGGGLVQAGGSLRLSCAASGRIFVKNAMGWYRQAPGKERELVAAISSSSGSTYYADSVKGRFTISRDNAKNTVYLQMNSLKPEDTAVYYCATVRWYYSRPRPTTAYGYWGQGTQVTVSS” the “polyreactivity (PSR sort gate)” value was “high polyreactivity”. For “QVQLVESGGGLVQAGGSLRLSCAASGRIFVLNAMGWYRQAPGKERELVAAITFSGGRTYYADSVKGRFTISRDNAKNTVYLQMNSLKPEDTAVYYCATRQDWRRTYGYWGQGTQVTVSS”, the “polyreactivity (PSR sort gate)” value was “low polyreactivity”. In the case of “QVQLVESGGGLVQAGGSLRLSCAASGRIFVNNAMGWSRQAPGKERELVAAISKRGGSTYYADSVKGRFTISRDNAKNSVYLQMNSLKPEDTAVYYCAATPVYSGPYDYWGQGTQVTVSS”, the “polyreactivity (PSR sort gate)” value is reported as “high polyreactivity”. For “QVQLVESGGGLVQAGGSLRLSCAASGRIFVNYAMGWYRQAPGKERELVAAITSDGSTSYADSVKGRFTISRDNAKNTVYLQMNSLKPEDTAVYYCAKDFFEHSPVSHTYSSSNYDYWGQGTQVTVSS”, the “polyreactivity (PSR sort gate)” value was “low polyreactivity”. With “QVQLVESGGGLVQAGGSLRLSCAASGRIFVPNAMGWYSQAPGKERELVAAINWGGGSTYYADSVKGRFTISRDNAKNTVYLQMNSLKPEDTAVYYCAADHPYTIGVLPNQQFDYWGQGTQVTVSS” the “polyreactivity (PSR sort gate)” value was “low polyreactivity”. In the case of “QVQLVESGGGLVQAGGSLRLSCAASGRIFVPYLMGWYRQAPGKERELVASISDSDTSTYYADSVKGRFTISRDNAKNTVYLQMNCLKPEDTAVYYCNVDYWGQGTQVTVSS”, the “polyreactivity (PSR sort gate)” value is reported as “low polyreactivity”. With “QVQLVESGGGLVQAGGSLRLSCAASGRIFVPYLMGWYRQAPGKERELVASISDSDTSTYYADSVKGRFTISRDNAKNTVYLQMNSLKPEDTAVYYCNVDYWGQGTQVTVSS” the “polyreactivity (PSR sort gate)” value was “low polyreactivity”. In the case of “QVQLVESGGGLVQAGGSLRLSCAASGRIFVQNAMGWYRQAPGKERELVAAISISGARTYYADSVKGRFTISRDNAKNSDYLQMNRLKPEDTAVYYCNASYRDEDDYWGQGTQVTVSS”, the “polyreactivity (PSR sort gate)” value is reported as “high polyreactivity”. In the case of “QVQLVESGGGLVQAGGSLRLSCAASGRIFVRNAMGWYRQAPGKERELVAAITRTGASTYYADSVKGRFTISRDNAKNTVYLQMNSLKPEDTAVYYCNKEIVWHLWYESWGQGTQVTVSS”, the “polyreactivity (PSR sort gate)” value is reported as “high polyreactivity”. For “QVQLVESGGGLVQAGGSLRLSCAASGRIFVRNAMGWYRQAPRKERELVADITNGGSTNYADSVKGRFTISRDNGMNTVYLQMNSLKPEDTAVYYCAADTLGVYDGDYWGQGTQVTVSS”, the “polyreactivity (PSR sort gate)” value was “low polyreactivity”.
